Measurements as given in PMC12708450, “Targeting tumor-infiltrating regulatory T cells: combining CD47 and PD-L1 inhibition via a novel aptamer-siRNA chimera”.

Biological target: PD-L1 (recombinant human) (Homo sapiens, UniProt Q9NZQ7 19-238)
Test: ELONA; 1:1 hyperbolic fit; ELONA: PD-L1 coated in PBS at 4 C overnight; blocked with PBS, 0.1% Tween 20, 1% BSA; wash PBS, 1 mM MgCl2, 0.1% Tween 20, 0.1% BSA; oligo heated 95 C 10 min then on ice 10 min; binding 45 min at room temperature; pH not stated
Details: protein: recombinant; label: biotin (ELONA)

Chain of PD-L1 (recombinant human) (Q9NZQ7 19-238): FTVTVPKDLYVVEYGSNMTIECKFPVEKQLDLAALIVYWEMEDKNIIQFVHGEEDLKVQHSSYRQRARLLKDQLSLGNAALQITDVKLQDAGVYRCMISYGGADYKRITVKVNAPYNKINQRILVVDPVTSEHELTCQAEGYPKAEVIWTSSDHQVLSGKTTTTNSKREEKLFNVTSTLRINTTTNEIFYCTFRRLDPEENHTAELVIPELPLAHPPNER

B1: PD-L1 aptamer (structured_DNA)
DNA: ACCGACCGTGCTGGACTCATCTCGCTTTTTTCACGGTCCACACTACTATGAGCGAGCCTGGCG
Work on B1 yielded a Kd of 108 nM.
